According to article PMC10164576, “Interaction with the carboxy-terminal tip of SSB is critical for RecG function in E. coli” (Nucleic Acids Research, 2023):
Where two headings read alike, the source gives them in different places. Where a SMILES comes first, the peptide text is derived from it. Where no end group is shown, it is not given here. The star is where a group is joined. 6FAM = O=C1OC2(c3ccc(O)cc3Oc3cc(O)ccc32)c2cc(C(=O)*)ccc21

Key:
[1] = test system: SSB-interacting proteins (SIPs); conditions: SSB113; cited from earlier work
Description: Most SSB-interacting proteins (SIPs) studied to date appear to share a conserved mode of SSB recognition in which they dock onto the SSB-Ct. Several SIPs have been co-crystalized with SSB-Ct peptides and their SSB-binding pockets have been validated in biochemical and/or genetic studies ([10],[12],[19],[20],[35]). SSB-Ct binding pockets have also been successfully predicted through computational methods ([36–39]). […] However, structural data ([31],[36],[108]) and predictions ([80]) reveal that the IDL is unstructured, and the length of IDLs across bacterial species varies greatly ([41]). […] Similarly, SSB fluorescent fusion proteins where GFP ...

RecG (WT) = biological target: T1, RecG (WT) (Escherichia coli, UniProt P24230); test: Fluorescence anisotropy binding of 6-FAM-labelled SSB peptides to wildtype RecG; set-up: species or system E. coli
T1 construct: RecG was expressed in STL2669/pT7pol26 (a gift from Dr Susan Lovett, Brandeis University) with overexpression plasmid pEAW111; made in house; host or cells: E. coli STL2669/pT7pol26
Experimental: SSB peptides (sequences listed in Figure 2) were designed with an N-terminal tryptophan residue for quantification and N-terminal 6-FAM label (Genscript). RecG was incubated with 0.2 M potassium glutamate, 1 mM DTT, 0.1 μg/ml BSA, 1 × RecA buffer (25 mM Tris-acetate, pH 7.6, 5% w/v glycerol, 3 mM potassium glutamate, 10 mM magnesium acetate, 1 mM DTT), and 10 nM labeled peptide at room temperature for 30 min. Fluorescence polarization (FP) values were measured at 25°C using a Beacon 2000 Fluorescence Polarization System. Polarization values were normalized to the FP value measured at 0 nM RecG. Normalized FP was converted to normalized anisotropy. Experiments were performed in triplicate, and the data were fit to a one site binding model (, where X is ligand concentration, Y is normalized anisotropy, Bmax is the maximum anisotropy, and KD is the dissociation constant) using GraphPad Prism Software.
Figure 2. RecG binds directly and specifically to the SSB-Ct. (A) Fluorescence anisotropy binding isotherms for RecG binding to SSB-Ct (black), SSB113 (violet), SSBΔF (blue), or SSB IDL (green) peptides. Peptide sequences are listed in parentheses with * representing an N-terminal 6-FAM label. Anisotropy values are normalized to the reading at 0 μM RecG. […] (B–E) ITC analysis of RecG/SSB binding. Thermograms (top) and binding isotherms (bottom) of titrations of (B) full-length SSB, (C) SSB-Ct peptide, (D) SSBΔF or (E) SSBΔF peptide into RecG solutions.
Two models explaining how RecG interacts with SSB have been proposed - RecG could interact with the SSB-Ct ([29]) or RecG could interact with the IDL ([48],[49]). To begin testing each model, we used an equilibrium fluorescence anisotropy assay to measure RecG binding to fluorescently labeled SSB-Ct or IDL peptides (Figure 2). Titration of RecG with the SSB-Ct peptide led to an increase in fluorescence anisotropy, which occurs when protein binding slows the tumbling rate of a labeled peptide ([90]). […] KD values in the low micromolar range are typical for SSB/SIP complexes ([10],[12–14],[19],[23]). […]

ΦX174 RF I DNA = test: DNA-dependent ATP hydrolysis assay (coupled spectrophotometric) of RecG proteins; type: biochemical; conditions: 150 nM RecG, 3 mM ATP, 37°C, pH 7.6, triplicate
Experimental: ATPase rates for wildtype and variant RecG proteins were determined using a coupled spectrophotometric assay ([86]). ATP hydrolysis reactions were conducted with 150 nM RecG in 1 × RecA buffer, supplemented with 1 mM DTT, 2.2 mM phosphor(enol)pyruvate, 10 units/ml pyruvate kinase, 10 units/ml lactate dehydrogenase, 2 mM NADH, and 3 mM ATP with varying concentrations of ΦX174 RF I (New England Biolabs) DNA at 37°C. DNA concentrations are represented in μM nucleotides (nt). A380 nm measured the conversion of NADH into NAD^+. Measurements were taken every 20–40 s on a Cary UV-Vis spectrophotometer. ATP hydrolysis rates were calculated by dividing the slope of A380 nm measurements over time over the linear region by ε380 nm = 1.21 mM^−1 cm^−1 for NADH and the cell path length (1 cm).
To more rigorously and quantitatively test the RecG HD2/SSB-Ct binding model, a RecG variant in which one of the putative SSB-binding residues is altered (RecG R474E) was purified and tested for binding to the SSB-Ct peptide and to full-length SSB in vitro. This variant was chosen because of the predicted interaction of the R474 side chain with the alpha-carboxyl group of SSB-Ct C-terminal Phe (Figure 3A). Analogous interactions have proven to be essential points of contact in other SIPs ([10],[19]). […] ATPase activity of RecG R474E was indistinguishable from that of wildtype RecG, with values for both maximal ATPase rates and the DNA concentrations required for 50% stimulation (KDNA) within error between the two proteins (Figure 4B and Table 2). Thus, we concluded that the RecG R474E variant was properly folded. To further examine the effect of the R474E sequence change, we also used ITC to measure RecG R474E binding to either the SSB-Ct or to full-length SSB. Binding was not detected in either titration (Figure 4C).
Figure 4.
We first measured binding to the SSB-Ct. […] RecG R95A binding to the SSB-Ct was expected since our experiments had shown that the peptide bound at a site in the RecG HD2 domain. […] This difference could be due to compromised DNA binding in the R95A variant. Arg95 is located on the DNA binding surface of the RecG wedge domain ([74]), and changing adjacent residues Phe96 or Phe97 to Ala results in drastic reductions in DNA binding and unwinding activity ([91]).

SSB [2] = conditions: S. cerevisiae pJ69-4a; Gal4 BD-RecG (variant) with Gal4 AD-SSB; SD His- and Ade-deficient plates, 30°C, 4–5 days
Experimental: SSB, RecG or RecG variants were N-terminally fused to the DNA binding domain (pGBD) or activation domain (pGAD) of the Gal4 transcription factor. Resulting plasmids (Supplementary Table S3) were transformed ([84]) in pairs into Saccharomyces cerevisiae strain pJ69-4a ([85]) and selected for on synthetic dextrose (SD) Leu- and Trp-deficient plates. Transformants were inoculated into SD Leu- and Trp-deficient liquid medium and grown at 30°C overnight rotating. Saturated overnight cultures were diluted to an OD600 nm of 1.0 in 2% glucose and serially diluted 10-fold in 2% glucose. Dilutions were spotted (10 μl) onto SD His- and Ade-deficient plates and grown at 30°C for 4–5 days. Plates were imaged on a Fotodyne gel doc. Site-directed mutagenesis of RecG in pGBD was performed by in vivo assembly mutagenesis ([78]) of pEAW1156.
A fourth charge-reversal variant of R484 was also tested as a control to determine whether an electrostatic change that is near, but not in, the putative SSB binding site would alter RecG binding to SSB. A yeast two-hybrid assay was used as an initial method to screen several RecG variants for interaction with SSB. In the two-hybrid assay, yeast were transformed with plasmids encoding SSB and RecG fused to the Gal4 activation and binding domains, respectively, and the RecG/SSB interaction was assessed by selecting for growth on selective medium plates. […]

SSB [3] = conditions: cited from earlier work
Description: In contra ... || To directly test whether the proposed RecG wedge domain IDL binding site is important for interaction with SSB, we purified a RecG R95A variant and measured its activity in vitro. […] We first measured binding to the SSB-Ct.

[4] = biological target: T2, RecG DNA helicase, wildtype (E. coli, UniProt P24230 1-693); test: ITC; SSB proteins or unlabeled peptides injected into RecG in the cell; 20 mM Tris-HCl pH 8.0, 150 mM NaCl, 10% glycerol, 1 mM EDTA, 1 mM β-mercaptoethanol; 25°C; one-site model; concentrations as monomers; conditions: both partners purified
T2 construct: RecG DNA helicase, E. coli, expressed from overexpression plasmid pEAW111; No tag is mentioned; also called WT RecG; source: E. coli STL2669/pT7pol26 with pEAW111, purified (ammonium sulfate, DEAE, Source 15Q, Source 15S)
T2 sequence (looked up): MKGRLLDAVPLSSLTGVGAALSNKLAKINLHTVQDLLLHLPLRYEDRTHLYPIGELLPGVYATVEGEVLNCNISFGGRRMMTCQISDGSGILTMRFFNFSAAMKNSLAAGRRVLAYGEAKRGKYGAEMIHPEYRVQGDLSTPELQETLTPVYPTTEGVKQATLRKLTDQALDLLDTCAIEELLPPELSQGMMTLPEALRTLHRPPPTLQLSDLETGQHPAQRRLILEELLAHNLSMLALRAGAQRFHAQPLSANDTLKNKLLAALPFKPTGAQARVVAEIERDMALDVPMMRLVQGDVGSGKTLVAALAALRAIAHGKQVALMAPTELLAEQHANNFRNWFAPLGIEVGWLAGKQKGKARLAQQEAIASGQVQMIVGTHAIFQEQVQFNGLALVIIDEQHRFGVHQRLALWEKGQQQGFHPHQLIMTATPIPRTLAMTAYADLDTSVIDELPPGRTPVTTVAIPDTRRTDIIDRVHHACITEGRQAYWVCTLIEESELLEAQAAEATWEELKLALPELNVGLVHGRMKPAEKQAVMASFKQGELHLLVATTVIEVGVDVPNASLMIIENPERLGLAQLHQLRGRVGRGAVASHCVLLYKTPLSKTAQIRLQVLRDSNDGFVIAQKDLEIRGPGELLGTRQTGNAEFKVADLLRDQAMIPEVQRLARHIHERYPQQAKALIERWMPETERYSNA

SSB113 protein: SSB with a Ser for the penultimate Pro of the SSB-Ct (ssb-113 mutation)
affinity for SIPs, in words [1]: greatly reduced affinity for SIPs

H-WMDFDDDIP [SSBΔF peptide]
Kd (RecG (WT); read-out: FP K D, WT RecG, fluorescence anisotropy, 10 nM N-terminal 6-FAM peptide, 0.2 M potassium glutamate, 25 mM Tris-acetate pH 7.6, 10 mM magnesium acetate, 30 min at room temperature, read at 25°C, one site fit, triplicate): > 30 µM

CC[C@H](C)[C@H](NC(=O)[C@H](CC(=O)O)NC(=O)[C@H](CC(=O)O)NC(=O)[C@H](CC(=O)O)NC(=O)[C@H](Cc1ccccc1)NC(=O)[C@H](CC(=O)O)NC(=O)[C@H](CCSC)NC(=O)[C@H](Cc1c[nH]c2ccccc12)NC(=O)c1ccc2c(c1)C1(OC2=O)c2ccc(O)cc2Oc2cc(O)ccc21)C(=O)N[C@@H](CO)C(=O)N[C@@H](Cc1ccccc1)C(=O)O [SSB113 peptide] (6FAM-WMDFDDDISF-OH)
Kd (RecG (WT)): 23 ± 3.1 µM

B1: RecG R474E: RecG Arg474Glu charge-reversal variant, HD2 domain (protein)
chain: MKGRLLDAVPLSSLTGVGAALSNKLAKINLHTVQDLLLHLPLRYEDRTHLYPIGELLPGVYATVEGEVLNCNISFGGRRMMTCQISDGSGILTMRFFNFSAAMKNSLAAGRRVLAYGEAKRGKYGAEMIHPEYRVQGDLSTPELQETLTPVYPTTEGVKQATLRKLTDQALDLLDTCAIEELLPPELSQGMMTLPEALRTLHRPPPTLQLSDLETGQHPAQRRLILEELLAHNLSMLALRAGAQRFHAQPLSANDTLKNKLLAALPFKPTGAQARVVAEIERDMALDVPMMRLVQGDVGSGKTLVAALAALRAIAHGKQVALMAPTELLAEQHANNFRNWFAPLGIEVGWLAGKQKGKARLAQQEAIASGQVQMIVGTHAIFQEQVQFNGLALVIIDEQHRFGVHQRLALWEKGQQQGFHPHQLIMTATPIPRTLAMTAYADLDTSVIDELPPGRTPVTTVAIPDTRRTDIIDEVHHACITEGRQAYWVCTLIEESELLEAQAAEATWEELKLALPELNVGLVHGRMKPAEKQAVMASFKQGELHLLVATTVIEVGVDVPNASLMIIENPERLGLAQLHQLRGRVGRGAVASHCVLLYKTPLSKTAQIRLQVLRDSNDGFVIAQKDLEIRGPGELLGTRQTGNAEFKVADLLRDQAMIPEVQRLARHIHERYPQQAKALIERWMPETERYSNA
modifications: left off: Gal4 DNA-binding domain, N-terminal, kept
K DNA (DNA concentration required for 50% stimulation of ATPase) (ΦX174 RF I DNA): 39.9 ± 2.9 μM nt
V max of ATP hydrolysis (ΦX174 RF I DNA): 363 ± 13 µM/min
yeast two-hybrid growth on selective medium (SSB [2]): failed to grow

B2: RecG R95A: RecG wedge domain variant (protein)
chain: MKGRLLDAVPLSSLTGVGAALSNKLAKINLHTVQDLLLHLPLRYEDRTHLYPIGELLPGVYATVEGEVLNCNISFGGRRMMTCQISDGSGILTMAFFNFSAAMKNSLAAGRRVLAYGEAKRGKYGAEMIHPEYRVQGDLSTPELQETLTPVYPTTEGVKQATLRKLTDQALDLLDTCAIEELLPPELSQGMMTLPEALRTLHRPPPTLQLSDLETGQHPAQRRLILEELLAHNLSMLALRAGAQRFHAQPLSANDTLKNKLLAALPFKPTGAQARVVAEIERDMALDVPMMRLVQGDVGSGKTLVAALAALRAIAHGKQVALMAPTELLAEQHANNFRNWFAPLGIEVGWLAGKQKGKARLAQQEAIASGQVQMIVGTHAIFQEQVQFNGLALVIIDEQHRFGVHQRLALWEKGQQQGFHPHQLIMTATPIPRTLAMTAYADLDTSVIDELPPGRTPVTTVAIPDTRRTDIIDRVHHACITEGRQAYWVCTLIEESELLEAQAAEATWEELKLALPELNVGLVHGRMKPAEKQAVMASFKQGELHLLVATTVIEVGVDVPNASLMIIENPERLGLAQLHQLRGRVGRGAVASHCVLLYKTPLSKTAQIRLQVLRDSNDGFVIAQKDLEIRGPGELLGTRQTGNAEFKVADLLRDQAMIPEVQRLARHIHERYPQQAKALIERWMPETERYSNA
modifications: left off: Gal4 DNA-binding domain, N-terminal, kept
notes: RecG wedge domain variant
reduction in co-purification with SSB (SSB [3]; previous study): 24 fold
binding to SSB in co-purification assay, in words (SSB [3]; prior results): severely reduced binding to SSB
K DNA (DNA concentration required for 50% stimulation of ATPase) (ΦX174 RF I DNA): 18.5 ± 4.9 μM nt
V max of ATP hydrolysis (ΦX174 RF I DNA): 127 ± 11 µM/min
yeast two-hybrid growth on selective medium (SSB [2]): grew on the selective medium

B3: SSB-Ct peptide, unlabeled (peptide)
peptide: WMDFDDDIPF
notes: N-terminal tryptophan residue added for quantification; C-terminal tip of SSB, E. coli; source: synthetic peptide (Genscript)
Kd [4]: 3.9 ± 0.8 µM
dH [4]: -4 ± 0.5 kcal/mol
stoichiometry N [4]: 0.92 ± 0.08
